According to publication PMC11996674, “Mechanism of mammalian transcriptional repression by noncoding RNA”:

Target: RNA polymerase II (12-subunit) (Sus scrofa (thymus), UniProt A0A8D1DPV6;A0A0B8RVL1;P19387;O15514;P19388;P61218;P62487;P52434;P60899;P62875;A0 …)
Experiment: cryo-EM; alternative conformation, EMD-18376; FA: 5 mM HEPES-NaOH pH 7.25, 150 mM NaCl, 10 uM ZnCl2, 1 mM MgCl2, 1 mM DTT, 4 nM RNA, 30 C; EMSA: 20 mM HEPES-NaOH pH 7.25, 150 mM NaCl, 1 mM MgCl2, 5% glycerol, 40 ug/ml BSA, 1 mM DTT, 5 nM RNA, 30 C (gel 4 C)
Details: protein: native; copies: 1;1;1;1;1;1;1;1;1;1;1;1; folded; canonical and alternative conformations

B1: minimal Alu-RA (structured_RNA)
RNA: GAGGCAGGAGAAUGGCGUGAACCCGGGAGGUGGACGAGAUCGCUCCAGCCUGGGUGACAGAGCGAGACUCUGUCUC
B1: binds.
